Among the data in the NTF2 design screens of Basanta et al. (2020) are protease stability score values, retold here.

The series in a line: protease stability score; higher = more stable; yeast display proteolysis, trypsin and chymotrypsin.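 Also: relative to predicted unfolded state with 0 unfolded-like and 1 meaning tenfold more protease.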
The sequence “SEDEEKTRKFIELFLYLWVTGDEDSLSELLDPNVRAEVNGKSAHGRDEVSKLSDVFMKELGVKHTRQTTQHRYEIQGDKLKSHLTIDIEVDGQNVKEFVVIVVEKINGRWIIRHIRFE” showed a protease stability score of 1.1.
With “SEDEEKVFEHLQRITESFVTGDEDSFRHLLDPNVLFLINGRIFHGWEALHWELRRYDHHEVRVHVHHIDFINGRARSDIRLDLHLNFNGKQIDIHTETRVHAEKINGRWRLKRIDIE”, the protease stability score amounted to 0.811.
The result for “SEDEELAESFSRLFFEAEETGDEESLLEMADPNVRVHIDGREIHGREEWIKHLRTFGVERIRIHMRHVEIQGDKLRLDLIVHQGDKTVRIEITIKKVDGRWVVHSIHWS” reads 0.868; that for “SEDEELAKEFAETMLHWEITGNEEAIRRNMDPNTKLDINGQHYIGRDDVLRVWHEIKKRLGVDHLEIHHIRVSVIGDKIRIEIDGHIRVNGREIETHIVIITEKINGKWIIRSMRYEFK”, 1.24; that for “SEDEELAKRIAKLWIELHLTGNEDTIKQLMDPRVLVRIHINGVDIHLHGREHVIRHHRETMKHLGWSKVHLELKDSKFIGEYLHMDVRMNVNGQEHHVELEIIVINGRMKEIRINIE”, 2.02.
Consider “SEDEELAQTFLELWVHFLRTGDESMLEQYIDPHARFKVGDKEDHGMKVFKDLLHHIRIEDFRVHHVEIRIVGEWIEIRMDITLHGRVDGVRDTKRVHVHINAEKYNGRWRIKELEIRHR”, for which the protease stability score came to 1.74.
The result for “SEDEELARIIMHLLEHATKTGDERILRKLLDPHVKIRVNGKDLIGWEEEHRRHEKLGADHLHLELIFKDWEFVGDYIKVHGEMRVRVNQGDKTDERNYEVRFYLLKVNGRWILESIQIH” reads 2.63; that for “SEDEELEKVFLRILKEILTTGDEDTLRFLLDPNARMHVGDKELHGWSNVYEQINQLRIKDYELRDFKRVGDKVDFDGRNHGHFNGRDVEHRARLIIQKIDGRWFIHANIIE”, 0.626; that for “SEDEELFKRAIEKLIHDLLTGNFEMLEHLLDPHTRVDFNGKIMHGREFVEDIRERFPNLKLELRIDDSSVINGRANIIGTLHFNVNGKFSTHEVHYHVNKFNGKWYIEEVRIK”, 1.32.
The value for “SEDEELIRRFLDEFEKVIRTGNETELQRLMDPNTRFEIDGVEYHGREEVSNLLIDWAKELRLHSLHFRHIELQGEKIKIDTRENREVDGKRHVRRTEIILIKIDGRWYLHSMRYE” was 1.98; that for “SEDEELLHKVLNEFIHNVKTGDWEIITRLLDPHALLRVNGVNHIGREDLDRQLKKDFQEMRLHNIHVDDLKIQGEWIHVDTTLDIHINGVRVHFKAHIRVLKIDGRWIVHSREIR” was 1.32; that for “SEDEELLKKFFERLLHALRTGDEDHLRTLIDPHARLIQGDKHYIGREQLEHSLHIILSHIRFEHHDSRREEIQGDKAIVHSHLIVRQGDKTYRLDVTFHLEKVNGRWVIREVDLN” was 1.33.
“SEDEELLRESVRIFREAMRTGDEEFSERMIDPNVRIHIGDKEYIGREWASEWHKRLGIKHSRFRHIEIQGDFMIADVENKVGDKHIQVEYWRHKINGRWIIESIKVH” registered a protease stability score of 1.55.
The value for “SEDEELMKKVFEIFLNHLETGDWRELEKLLDPHAQLNIDGRDYHGWDKITEEMRKLGMTMHSELEHVRFQGDKIDLKGYVKVRIGDKEIRRSTRYVALKVDGRWEERSIILL” was 1.41.
The result for “SEDEELMRRAEDFIIETWETGDWELLHHLADPRVQLDINGRTEHGRENMNEALRRWLDDLGFDHHRVRKKHVIDGRVILDFEIFQGDKEVHLHLHNVVVNGRMKSVHFKLQDN” reads -0.052; that for “SEDEELRQIAVEFILHILWTGDEELLYKYFDPHVRSDINGRRTHGRENMLRAIREMMRKIKGIQLTSLHITDIEIIGDYLNIDGHFRLNYDGKETDLSLKIDIFKINGKWSIHAISYR”, 2.08.
“SEDEELSKKAVEDILRNLETGDWETISRMADPHVRVDFNGVDIHGREVMSKMFEDELRDLGVTKVDVRLHDVDSQGDKVIVHHRVHVNGRTEEVEVHATKFNGKWVIKKMTVRVK” yielded a protease stability score of 1.19.
The result for “SEDEELSKYLNEEINEILRTGDEDRWKELADPNTLLIIDGREFHGMELVIHLLHHLWKRLGIDQIHSTVEDEKVQGDKIIFHHRLEYNGRESHVIIISHKFNGRWRAKRVEVN” reads 1.43.
